Among the data in article PMC4547098 (eLife, 2015) are Kd values, retold here.

The target in assay [1] is AVR-PikD with non-cleavable C-terminal 6xHis tag (pOPINE) (Magnaporthe oryzae, UniProt C4B8B8 22-113). As to the kind of experiment: SPR; Biacore T200, 25°C, single-cycle kinetics; […]; 50 mM HEPES pH 7.5, 150 mM NaCl, 0.1% Tween 20. As to conditions: both partners purified. Background: SPR reads the build-up and loss of mass on a sensor chip optically.
The target of assay [2] is AVR-PikE with non-cleavable C-terminal 6xHis tag (pOPINE) (Magnaporthe oryzae, UniProt C4B8B8 22-113). As to the kind of experiment: SPR. As to conditions: both partners purified.

B1: Pikp-HMA domain (HMA integrated domain of the rice NLR Pikp-1) (domain or fragment)
chain: GLKQKIVIKVAMEGNNCRSKAMALVASTGGVDSVALVGDLRDKIEVVGYGIDPIKLISALRKKVGDAELLQVS
notes: also called Pikp1-HMA; Pikp-1 HMA; not shown: 6xHis+SUMO, N-terminal, cleaved
For B1, the Kd is 29 ± 3.5 nM in assay [1] and 367 ± 41 nM in assay [2].

As a reminder, the Kd is the constant that tells how readily two partners part at equilibrium.
